# Assay: yeast display, Sf9 membrane polyspecificity reagent, FACS + sequencing; frameworks hold sequencing errors
# In short: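 After 36–48 hours of galactose induction, yeast (Saccharomyces cerevisiae BJ5465) displaying a synthetic nanobody library were stained at 4 °C for 1 hour with 10% biotinylated, detergent-solubilized Sf9 membrane reagent. Streptavidin microbeads enriched the stained cells before FACS sorting into low and high (top ~1%) gates on anti-HA and streptavidin fluorescence. Each clone's polyreactivity label reflects its gate of origin.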
row,Sequence,polyreactivity (PSR sort gate)
1,QVQLVESGGGLVQAGGSLRLSCAASGSIFDYNAMGWYRQAPGKERELVAAITYSGGTTYADSVKGRFTISRDNAKNTVYLQMNSLKPEDTAVYYCNADVYRWSGSYTGWDSWHDYWGQGTQVTVSS,low polyreactivity
2,QVQLVESGGGLVQAGGSLRLSCAASGSIFDYNAMGWYRTAPGKERELVAAITGSGGSTYYADSVKGRFTISRDNAKNTVYLQMNSLTQEDTAVYYCAAPVDYRRYEYEYWGQGTQVTLSS,low polyreactivity
3,QVQLVESGGGLVQAGGSLRLSCAASGSIFDYNGMGWYRQAPGKERELVAAISSGGSTNYADSVKGRFTISRDNAKNTVYLQMNSLKPEDTAVYYCAAVGRAKYYYWGQGTQVTVSS,low polyreactivity
4,QVQLVESGGGLVQAGGSLRLSCAASGSIFDYYAMGWYRQAPGKERELVAAISWRGGRTYYADSVKGRFTISRDNAKNTVYLQMNSLKPEDTAVYYCAAYFQRSGFSFRLRGQGTQVTVSS,high polyreactivity
5,QVQLVESGGGLVQAGGSLRLSCAASGSIFDYYAMGWYRQAPGKERELVAAISWSGGSTYYADSVKGRFTISRDNAKNTVYLQMNSLKPEDTAVYYCAAEYYGGELDYWGQGTQVTVSS,low polyreactivity
6,QVQLVESGGGLVQAGGSLRLSCAASGSIFDYYAMGWYRQAPGQERELVAAISVRGGSTYYADSVKGRFTISRDNANNTVYLHKNSLKPEDTAVYYCAADYAYNKYLSVEYWGQGTQVTVSS,low polyreactivity
7,QVQLVESGGGLVQAGGSLRLSCAASGSIFDYYTMGWYRQAPGKERELVATIRSGDSTNYADSVKGRFTISRDNAKNTVYLQMNSLIPEDTAVYYCAADDGAYPTLYDYWGQGTQVTVST,low polyreactivity
8,QVQLVESGGGLVQAGGSLRLSCAASGSIFDYYTMGWYRQAPGKEREWVAAITRSGGRTYYADSVKGRFTISRDNAKNTVYLQMNSLKPEDTAVYYCATRAVSRFGNGPYDYWGQGTQVTVSS,high polyreactivity
9,QVQLVESGGGLVQAGGSLRLSCAASGSIFEEYALGSSRQAPGKERELVAAISRSGGSTYYADSVKGRFTISRDNAKNSVYLQMNSLKPEDTAVYYCAAEWVYGYRFGYWGQGTQVTVSS,low polyreactivity
10,QVQLVESGGGLVQAGGSLRLSCAASGSIFEGNGMGWYRPAPGKERELVAAITFRSGSTYYADSVKGRFTISRDNAKNTVYLQMNSLKPEDTAVYYCAADEYYQVSAYDYWGQGTQVTVSS,low polyreactivity
11,QVQLVESGGGLVQAGGSLRLSCAASGSIFEGNSMGWYRQAPGKERELVAAISRRGGRTYYADSVKGRFTISRDNAKKTVFLQMNSLKPEDTAVYYCNALYFRVGRYQTYSDKFDYWGQGTQVTVSS,high polyreactivity
12,QVQLVESGGGLVQAGGSLRLSCAASGSIFEGYAMGWYRQAPGKERELVAVITTSGGDTYYADSVKGRFTISRDNAKNTVYLQMNSLKPEDTAVYYCNAADAVSDYPDFHIYDYWGQGTQVTVSS,low polyreactivity
13,QVQLVESGGGLVQAGGSLRLSCAASGSIFEGYVMGWYRQAPGKERELVATISFSGGSTYYADSVKGRFTISRDNAKNTVYLQMNSLKPEDTAVYYCNALVYHTKGDYGYWGHGTQVTVSS,low polyreactivity
14,QVQLVESGGGLVQAGGSLRLSCAASGSIFEGYVMGWYRQAPGKERELVATISFSGGSTYYADSVKGRFTISRDNAKNTVYLQMTSLKPEDTAVYFCNALVYHTKGDYGYWGQGTQVTVSS,low polyreactivity
15,QVQLVESGGGLVQAGGSLRLSCAASGSIFEIYDMGWYRQAPGKERELVASITWSGGSTYYADSVKGRFTISRDNAKNTVYLQMNSLKPEDTAVYYCATDKLYGRTVRMDYWGQGTQVSVSS,low polyreactivity
16,QVQLVESGGGLVQAGGSLRLSCAASGSIFEPYAMGGYRQAPWTERELVAAIRVSGGSTYYADSVKGRFTISRDNAKNTVYLQMNSLKPEDTAVYYCGPDWWSRYYYWGQGTQVTVSS,high polyreactivity
17,QVQLVESGGGLVQAGGSLRLSCAASGSIFEPYAMGWYRQAPGKERELVAAISWDVGRTYYADSVKGRFTISRDNAKNTVYLQMNSLKPEDTAVYYCAAEIAIDGYYKSWYDYWGQGTQVTVSS,high polyreactivity
18,QVQLVESGGGLVQAGGSLRLSCAASGSIFEPYVMGWYRQAPGKERELVAAIRQTGGSTYYADSVKGRFTISRDNAKNTVFLQMNSLKPEDTAVYYCNAKWYGWQRGTVKYDYWGQGTQVTVSS,low polyreactivity
19,QVQLVESGGGLVQAGGSLRLSCAASGSIFEPYVMGWYRQAPGKERELVAVITSGSGRTYYADSVKGRFTISRDNAKNTVYLQMNSLKPEDTAVYYCNKAYLGYRYDLYDYWGQGTQVTVSS,low polyreactivity
20,QVQLVESGGGLVQAGGSLRLSCAASGSIFERNAMGWYRQAPGKERELVAAISWSSARTYYADSVKGRFTISRDNAKNTVYLQMNSLKPEDTAVYYCAARVWNEGVRYDYWGQGTQVTVSS,high polyreactivity
21,QVQLVESGGGLVQAGGSLRLSCAASGSIFESYAMGLYRQAPGKERELVAALTSSGDSTYYADSVKGRFTISRDNAKNTVYLQMYSLNPEDTAVDYCAKRVPTYISTADWVSRYDYWGQGTQVTVSS,low polyreactivity
22,QVQLVESGGGLVQAGGSLRLSCAASGSIFEVNAMGWYRQAPGKERELVAGISNADSTNYADSVKGRFTISRDNAKNTVYLQMNSLKPEDTAVYYCATDLYRDHPKDLLGPEYDYWGQGTQVTVSS,low polyreactivity

row,Sequence,polyreactivity (PSR sort gate)
1,QVQLVESGGGLVQAGGSLRLSCAASGSIFEVYAMGWYRQAPGKERELVAAINYTGGSTYYADSVKGRFTISRDNAKNTVYLQMNSLKPEDTAVYYCAVPRGVASLQKVEFGYWGQGTQVTVSS,low polyreactivity
2,QVQLVESGGGLVQAGGSLRLSCAASGSIFEYNAMGWYRQAPGKERELVAAISGNGGRTYYADSVKGRFTISRDNAKNTVYLQMNSLKPEDTAVYYCNAQTYYSTYKSTFYYWGQGTQVTVSS,high polyreactivity
3,QVQLVESGGGLVQAGGSLRLSCAASGSIFEYNAMGWYRQAPGKERELVAAISWSSGTTYYADSVKGRFTISRDNAKNTVYLQMNSLKPEDTAVYYCAAVRWYVPGDVGYWGQGTQVTVSS,low polyreactivity
4,QVQLVESGGGLVQAGGSLRLSCAASGSIFEYNVMGWYRQAPGKERELVAAINSGGSTYYADSVKGRFTISRDNAKNTVYLQMNSLKPEDTAVYYCAARQRPNRYGYYYWGQGTQVTVSS,high polyreactivity
5,QVQLVESGGGLVQAGGSLRLSCAASGSIFEYYTMGWYIQAPGKERELVAGISWSGGSSYYADSVKGRFTISRDNAKNTVYLQMNSLKPEDTAVYYCAAGRTGWYWDSGSTYRYGYGYWGQGTQVTVSS,high polyreactivity
6,QVQLVESGGGLVQAGGSLRLSCAASGSIFFANAMGWYRQAPGKERELVAAITGSGDITYYADSVKGRFTISRDNAKNTVYLQMNSLKPEDTAVYYCAKRYIYVTHLRHPRYYYWGQGTQVTVSS,low polyreactivity
7,QVQLVESGGGLVQAGGSLRLSCAASGSIFFDYAMGWYRQAPGKERELVAAINSGGTTNYADSVKGRFTISRDNAKNTVYLQMIQPETGRYRGLLLQRLPGYLRWYRWYDYWGQGTQVSVSS,low polyreactivity
8,QVQLVESGGGLVQAGGSLRLSCAASGSIFFDYAMGWYRQAPGKETELVAAMSSTGGSTYYADSVKGRFTISRDNSKNTVYLQMNSLIPEDTAVYYCNARYYSYSSPYDYWGEGTQVTVSS,high polyreactivity
9,QVQLVESGGGLVQAGGSLRLSCAASGSIFFFNAMGWYRQAPGKEREFVAAITSSSGRTYYADSVKGRFTISRDNAKNTVYLQMNSLKPEDTAVYYCAAEGLDEGDYWGQGTQVTVSS,low polyreactivity
10,QVQLVESGGGLVQAGGSLRLSCAASGSIFFKNVMGWYRQAPGKERELVAAITWSGGSTYYADSVKGRFTISRDNAKNTVYLQMNSLKPEDTAVYYCNARRSKGMYYWGQGTQVTVSS,high polyreactivity
11,QVQLVESGGGLVQAGGSLRLSCAASGSIFFKYAMGWYRQAPGKEREMVAAITWSGGRTYYADSVKGRFTISRDNAKNTVYLQMNSLKPEDTAVYYCNAYSIGVAAADDYWGQGTQVTVSS,high polyreactivity
12,QVQLVESGGGLVQAGGSLRLSCAASGSIFFPYAMGWYRKAPGKERGLVAAISWRGGITYYADSVKGRFTISRDNAKNTVYLQMNSLKPADTAVYYCAADGPYTGDGALDYWGQGTQVTVSS,high polyreactivity
13,QVQLVESGGGLVQAGGSLRLSCAASGSIFFRNAMGRYRPAPGKERELVAAISKSGGSTYYADSVKGRFTISRDNAKNTVYLQMNSLKPEDTAVYYCAAERTFLYWAYDYWGQGTQVTVSS,high polyreactivity
14,QVQLVESGGGLVQAGGSLRLSCAASGSIFFRNAMGWYRQAPGKERELVAAITWNGGSTYYADSVKGRFTISRDNAKNTVYLQMNSLKPEDTAVYYCNKYYYYRDSGYWGQGTQVTVSS,high polyreactivity
15,QVQLVESGGGLVQAGGSLRLSCAASGSIFFRYALAWYRQAPGKERELVASITSGGSTYYADSVKGRFTISRDNAKNTVYLQMNSLKPEDTAVYYCNALPYRYRRYDYWGQGTQVTVSS,low polyreactivity
16,QVQLVESGGGLVQAGGSLRLSCAASGSIFFRYAMGWYRQAPGKERELVATIRSSGGRTHYADSVKGRFTISRDNAKNTVYLQMHSLKPEDTAVYYCHYGVYQYPQDYDYWGQGTQVTVSS,low polyreactivity
17,QVQLVESGGGLVQAGGSLRLSCAASGSIFFRYAMGWYRQAPGKVRELVANISSGGGNTYYADSVKGRFTISRDNAKNTVYLQMNSLKPEDTAVYYCARRLATRGHTYDYWGQGTQVTVSS,low polyreactivity
18,QVQLVESGGGLVQAGGSLRLSCAASGSIFFSNAMGWYSPAPGKEREIVAGIRSGGITNYADSVKGRFTISRDNAKNTVYLEMNSLKPEDTAVYYCAKLNDHGRYAYAFDYWGQGTQVTVSS,low polyreactivity
19,QVQLVESGGGLVQAGGSLRLSCAASGSIFFSNVMGWYRQAPGKERELVAAIRWSGDSTYYADSVKRRFTISRDNAKNTVYLQMNSLKPEDTAVYYCARDVYGSVSVSGYYYWGQGTQVTVSA,low polyreactivity
20,QVQLVESGGGLVQAGGSLRLSCAASGSIFFSYAMGWYRQAPGKEREFVAAINSDDASTYADSVKGRFTISRDNAKNTVYLQMNSLKPEDTAVYYCAASFLWSWYDYWGQGTQVTVSS,low polyreactivity
21,QVQLVESGGGLVQAGGSLRLSCAASGSIFFSYAMGWYRQARGKERELVAAISTSGGNTYYADSVKGRFTISRDNAKNTVYLQMNSLKPEDTAVYYCNALYIYFYNYLTMDYWGQGTQVTVSS,low polyreactivity

# Source: the nanobody polyreactivity screen of Harvey et al. (2022)
